Biological target: T1, K+/Cl- co-transporter KCC2 (mouse (endogenous in mouse forebrain)), Q91V14
T1 chain: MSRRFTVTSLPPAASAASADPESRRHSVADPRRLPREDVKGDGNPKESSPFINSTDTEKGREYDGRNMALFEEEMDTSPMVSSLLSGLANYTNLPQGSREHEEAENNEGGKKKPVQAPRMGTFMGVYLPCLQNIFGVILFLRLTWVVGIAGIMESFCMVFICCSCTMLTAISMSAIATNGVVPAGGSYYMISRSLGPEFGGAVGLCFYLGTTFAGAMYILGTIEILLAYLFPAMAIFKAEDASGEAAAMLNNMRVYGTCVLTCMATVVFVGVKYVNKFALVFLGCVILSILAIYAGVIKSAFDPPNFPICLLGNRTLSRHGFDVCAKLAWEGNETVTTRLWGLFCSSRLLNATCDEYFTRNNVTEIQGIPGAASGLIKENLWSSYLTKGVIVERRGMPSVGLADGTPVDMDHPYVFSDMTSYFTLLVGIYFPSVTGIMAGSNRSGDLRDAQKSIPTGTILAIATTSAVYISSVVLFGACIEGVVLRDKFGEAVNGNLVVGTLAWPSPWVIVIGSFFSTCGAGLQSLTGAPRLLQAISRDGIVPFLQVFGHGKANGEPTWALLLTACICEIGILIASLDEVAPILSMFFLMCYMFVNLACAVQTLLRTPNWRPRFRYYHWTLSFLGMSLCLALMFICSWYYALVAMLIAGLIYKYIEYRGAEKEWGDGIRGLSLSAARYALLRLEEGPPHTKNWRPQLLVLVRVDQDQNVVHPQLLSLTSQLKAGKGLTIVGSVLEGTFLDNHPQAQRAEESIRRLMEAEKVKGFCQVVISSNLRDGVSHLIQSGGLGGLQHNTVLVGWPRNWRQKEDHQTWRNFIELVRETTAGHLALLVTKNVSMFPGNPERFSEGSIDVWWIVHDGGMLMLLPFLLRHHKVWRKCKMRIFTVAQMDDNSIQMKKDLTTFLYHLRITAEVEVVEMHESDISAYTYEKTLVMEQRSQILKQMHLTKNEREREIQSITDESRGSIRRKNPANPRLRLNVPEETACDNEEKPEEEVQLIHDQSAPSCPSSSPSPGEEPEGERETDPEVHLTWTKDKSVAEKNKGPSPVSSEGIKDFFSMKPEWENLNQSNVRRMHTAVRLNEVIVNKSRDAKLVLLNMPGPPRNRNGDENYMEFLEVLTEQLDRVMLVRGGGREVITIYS
Assay: native gel or EMSA
Settings: remark: other sources report otherwise

B1: K+/Cl- co-transporter KCC2, Q91V14 1-1138 (natural protein)
chain: T1 chain
stoichiometry N: 2
